In paper PMC7658014:

Molecular target: T1, His6-OpaR (Vibrio parahaemolyticus (VP93?)) (UniProt Q79YV4)
T1 sequence: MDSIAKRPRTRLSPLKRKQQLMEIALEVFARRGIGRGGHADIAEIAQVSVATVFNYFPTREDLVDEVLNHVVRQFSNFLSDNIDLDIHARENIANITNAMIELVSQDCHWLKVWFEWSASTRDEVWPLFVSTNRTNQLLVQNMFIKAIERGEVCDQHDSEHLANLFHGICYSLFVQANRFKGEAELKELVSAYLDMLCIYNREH
Experiment: EMSA
Details: EMSA: 0.4 ng probe, 20 uL of 100 mM HEPES pH 7.6, 5 mM EDTA, 50 mM (NH4)2SO4, 5 mM DTT, 1% Tween 20, 150 mM KCl, 25 C, 30 min; footprinting: 75 ng probe, DIG …

Row | Sequence | binding
1 | GCGCCAAAATGGCATAGAAAGGTGAAGAATAGCATTACATTGAAAAATAACAAAAGGGCAGTGCGTGATCGCACTGCCCTTTTAATAATCAGATTGATAGTAAGATTAACTCTTCGAGCTTTATCACCAAGAGTGATGAATCAATCG (double strand) [degS P1] | binds
2 | GGTTTATCCTATAAATTGCGGATATTTTAAGAAATTAATATTCATTAAATTGATAACTGGCGACGGATCTTTATGATGACGGTTGATATGCCGATAGAGCACTCATTAGCCAGT (double strand) [lytM P1] | binds
